Assay results from article PMC3320877 (2012).

How the values were obtained:
[1] = target: T1, recombinant His-tagged insect-cell expressed CCR5, detergent-solubilised (UniProt P51681 1-352); assay: SPR; 1:1 binding model
[2] = target: T1, recombinant His-tagged insect-cell …; assay: SPR; two binding site model, KD2 (second site)
[3] = target: T1, recombinant His-tagged insect-cell …; assay: SPR; two binding site model, KD1

T1 sequence (P51681 whole entry): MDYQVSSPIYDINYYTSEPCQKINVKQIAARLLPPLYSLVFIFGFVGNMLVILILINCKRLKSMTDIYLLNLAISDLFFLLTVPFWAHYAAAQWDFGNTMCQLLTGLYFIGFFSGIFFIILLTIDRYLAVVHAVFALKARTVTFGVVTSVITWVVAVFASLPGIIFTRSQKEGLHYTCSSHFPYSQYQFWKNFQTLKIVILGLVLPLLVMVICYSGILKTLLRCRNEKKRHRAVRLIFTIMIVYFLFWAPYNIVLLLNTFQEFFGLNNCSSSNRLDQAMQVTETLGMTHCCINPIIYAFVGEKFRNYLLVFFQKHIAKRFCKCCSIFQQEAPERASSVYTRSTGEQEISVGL

B1: visfatin (recombinant) (natural protein)
chain: MNPAAEAEFNILLATDSYKVTHYKQYPPNTSKVYSYFECREKKTENSKLRKVKYEETVFYGLQYILNKYLKGKVVTKEKIQEAKDVYKEHFQDDVFNEKGWNYILEKYDGHLPIEIKAVPEGFVIPRGNVLFTVENTDPECYWLTNWIETILVQSWYPITVATNSREQKKILAKYLLETSGNLDGLEYKLHDFGYRGVSSQETAGIGASAHLVNFKGTDTVAGLALIKKYYGTKDPVPGYSVPAAEHSTITAWGKDHEKDAFEHIVTQFSSVPVSVVSDSYDIYNACEKIWGEDLRHLIVSRSTQAPLIIRPDSGNPLDTVLKVLEILGKKFPVTENSKGYKLLPPYLRVIQGDGVDINTLQEIVEGMKQKMWSIENIAFGSGGGLLQKLTRDLLNCSFKCSYVVTNGLGINVFKDPVADPNKRSKKGRLSLHRTPAGNFVTLEEGKGDLEEYGQDLLHTVFKNGKVTKSYSFDEIRKNAQLNIELEAAHH
B1 gave a Kd [1] of 5000 nM, a Kd [2] of 600 nM and a Kd [3] of 2 nM.
